Five molecules from US10858688B2, “Observation method using binding and dissociation probe” (KYOTO UNIVERSITY, priority 2015, dated 2020) can be followed below.

Sequences and labels used below:
B1: Plectin-1 4022-4364: EGFP fused (N terminus) human Plectin-1 fragment, residues 4022-4364 of sequence number 8 (protein, listed as Homo sapiens)
chain: FRGLRKQITMEELVRSQVMDEATALQLREGLTSIEEVTKNLQKFLEGTSCIAGVFVDATKERLSVYQAMKKGIIRPGTAFELLEAQAATGYVIDPIKGLKLTVEEAVRMGIVGPEFKDKLLSAERAVTGYKDPYSGKLISLFQAMKKGLILKDHGIRLLEAQIATGGIIDPEESHRLPVEVAYKRGLFDEEMNEILTDPSDDTKGFFDPNTEENLTYLQLMERCITDPQTGLCLLPLKEKKRERKTSSKSSVRKRRVVIVDPETGKEMSVYEAYRKGLIDHQTYLELSEQECEWEEITISSSDGVVKSMIIDRRSGRQYDIDDAIAKNLIDRSALDQYRAGTL
modifications: N-terminal EGFP fusion
B2: Plectin-1 3777-4684: EGFP fused (N terminus) human Plectin-1 fragment, residues 3777-4684 of sequence number 8 (protein, listed as Homo sapiens)
chain: YDYVRRRLTAEDLFEARIISLETYNLLREGTRSLREALEAESAWCYLYGTGSVAGVYLPGSRQTLSIYQALKKGLLSAEVARLLLEAQAATGFLLDPVKGERLTVDEAVRKGLVGPELHDRLLSAERAVTGYRDPYTEQTISLFQAMKKELIPTEEALRLLDAQLATGGIVDPRLGFHLPLEVAYQRGYLNKDTHDQLSEPSEVRSYVDPSTDERLSYTQLLRRCRRDDGTGQLLLPLSDARKLTFRGLRKQITMEELVRSQVMDEATALQLREGLTSIEEVTKNLQKFLEGTSCIAGVFVDATKERLSVYQAMKKGIIRPGTAFELLEAQAATGYVIDPIKGLKLTVEEAVRMGIVGPEFKDKLLSAERAVTGYKDPYSGKLISLFQAMKKGLILKDHGIRLLEAQIATGGIIDPEESHRLPVEVAYKRGLFDEEMNEILTDPSDDTKGFFDPNTEENLTYLQLMERCITDPQTGLCLLPLKEKKRERKTSSKSSVRKRRVVIVDPETGKEMSVYEAYRKGLIDHQTYLELSEQECEWEEITISSSDGVVKSMIIDRRSGRQYDIDDAIAKNLIDRSALDQYRAGTLSITEFADMLSGNAGGFRSRSSSVGSSSSYPISPAVSRTQLASWSDPTEETGPVAGILDTETLEKVSITEAMHRNLVDNITGQRLLEAQACTGGIIDPSTGERFPVTDAVNKGLVDKIMVDRINLAQKAFCGFEDPRTKTKMSAAQALKKGWLYYEAGQRFLEVQYLTGGLIEPDTPGRVPLDEALQRGTVDARTAQKLRDVGAYSKYLTCPKTKLKISYKDALDRSMVEEGTGLRLLEAAAQSTKGYYSPYSVSGSGSTAGSRTGSRTGSRAGSRRGSFDATGSGFSMTFSSSSYSSSGYGRRYASGSSASLGGPESAVA
modifications: N-terminal EGFP fusion
B3: Plectin-1 4066-4364: EGFP fused (N terminus) human Plectin-1 fragment, residues 4066-4364 of sequence number 8 (protein, listed as Homo sapiens)
chain: LEGTSCIAGVFVDATKERLSVYQAMKKGIIRPGTAFELLEAQAATGYVIDPIKGLKLTVEEAVRMGIVGPEFKDKLLSAERAVTGYKDPYSGKLISLFQAMKKGLILKDHGIRLLEAQIATGGIIDPEESHRLPVEVAYKRGLFDEEMNEILTDPSDDTKGFFDPNTEENLTYLQLMERCITDPQTGLCLLPLKEKKRERKTSSKSSVRKRRVVIVDPETGKEMSVYEAYRKGLIDHQTYLELSEQECEWEEITISSSDGVVKSMIIDRRSGRQYDIDDAIAKNLIDRSALDQYRAGTL
modifications: N-terminal EGFP fusion
B4: Plectin-1 3777-4313: EGFP fused (N terminus) human Plectin-1 fragment, residues 3777-4313 of sequence number 8 (protein, UniProt Q15149 3777-4313, looked up, fragment)
chain: YDYVRRRLTAEDLFEARIISLETYNLLREGTRSLREALEAESAWCYLYGTGSVAGVYLPGSRQTLSIYQALKKGLLSAEVARLLLEAQAATGFLLDPVKGERLTVDEAVRKGLVGPELHDRLLSAERAVTGYRDPYTEQTISLFQAMKKELIPTEEALRLLDAQLATGGIVDPRLGFHLPLEVAYQRGYLNKDTHDQLSEPSEVRSYVDPSTDERLSYTQLLRRCRRDDGTGQLLLPLSDARKLTFRGLRKQITMEELVRSQVMDEATALQLREGLTSIEEVTKNLQKFLEGTSCIAGVFVDATKERLSVYQAMKKGIIRPGTAFELLEAQAATGYVIDPIKGLKLTVEEAVRMGIVGPEFKDKLLSAERAVTGYKDPYSGKLISLFQAMKKGLILKDHGIRLLEAQIATGGIIDPEESHRLPVEVAYKRGLFDEEMNEILTDPSDDTKGFFDPNTEENLTYLQLMERCITDPQTGLCLLPLKEKKRERKTSSKSSVRKRRVVIVDPETGKEMSVYEAYRKGLIDHQTYLELSEQEC
modifications: N-terminal EGFP fusion
B5: Plectin-1 3777-4364: EGFP fused (N terminus) human Plectin-1 fragment, residues 3777-4364 of sequence number 8 (protein, UniProt Q15149 3777-4364, looked up, fragment)
chain: YDYVRRRLTAEDLFEARIISLETYNLLREGTRSLREALEAESAWCYLYGTGSVAGVYLPGSRQTLSIYQALKKGLLSAEVARLLLEAQAATGFLLDPVKGERLTVDEAVRKGLVGPELHDRLLSAERAVTGYRDPYTEQTISLFQAMKKELIPTEEALRLLDAQLATGGIVDPRLGFHLPLEVAYQRGYLNKDTHDQLSEPSEVRSYVDPSTDERLSYTQLLRRCRRDDGTGQLLLPLSDARKLTFRGLRKQITMEELVRSQVMDEATALQLREGLTSIEEVTKNLQKFLEGTSCIAGVFVDATKERLSVYQAMKKGIIRPGTAFELLEAQAATGYVIDPIKGLKLTVEEAVRMGIVGPEFKDKLLSAERAVTGYKDPYSGKLISLFQAMKKGLILKDHGIRLLEAQIATGGIIDPEESHRLPVEVAYKRGLFDEEMNEILTDPSDDTKGFFDPNTEENLTYLQLMERCITDPQTGLCLLPLKEKKRERKTSSKSSVRKRRVVIVDPETGKEMSVYEAYRKGLIDHQTYLELSEQECEWEEITISSSDGVVKSMIIDRRSGRQYDIDDAIAKNLIDRSALDQYRAGTL
modifications: N-terminal EGFP fusion

The test system of one assay is intermediate filament. Kind of assay: Localization test of probe candidates (integrated SiMS images). To be noted: fixed, permeabilized XTC cell; lysate supernatant of EGFP fused probe; TIRF, 10000 frames. Details: key: “localization” is positive (P) when above criterion (1) is met. The format is cell-based, Xenopus laevis. As for the experimental part:
HEK (Human embryonic kidney)-293F cells were transfected with a plasmid encoding a probe candidate protein tagged with FLAG-EGFP or 3×FLAG-EGFP. […] Centrifugal separation was performed on the lysate and the supernatant liquid was collected. In order to perform screening for a probe for IRIS, the binding capacity of a probe candidate in the supernatant liquid with respect to the structure of an XCT cell that was fixed with paraformaldehyde (PFA) and that received a permeabilization process was tested. The appearance and disappearance of single molecule speckles (Single-molecule speckles, SiMS) in the structure was tested. Screening was performed for a probe for IRIS in accordance with the following criteria:
(1) It is possible to confirm a distribution of target substances in the structure in an image resulting from adding SiMS images;
The localization test of the above (1), whose result is shown in table 1, was performed in the following procedures. First, the supernatant liquid of lysate of a cell that expressed each probe candidate was brought into contact with an XCT cell that was fixed on a coverglass and that received a permeabilization process. […] The obtained speckle images of 10000 frames were integrated so as to confirm whether or not a distribution of target substances in the cell (microtubule, intermediate filament, focal adhesion or actin filament) was able to be confirmed. When a distribution of a target substances was able to be confirmed, the result of the localization test was treated as P (positive).
Regarding B1, the LOCALIZATION result is “P”.
Regarding B2, the LOCALIZATION entry was “P”.
In the case of B3, the LOCALIZATION result is on record as “P”.
The same measure, in the same setting: then B4, with “P”.
Take B5: the LOCALIZATION result is recorded as “P”.

The test system of a further assay is intermediate filament. Briefly: Measurement of binding half-life of probe-target complex. On the set-up: species or system Xenopus laevis. The following applies: fixed XTC cell, single exponential fit. From the text: A probe and a target substance have the following binding characteristics. […] The above half-life herein is preferably a half-life of a probe-target complex formed by binding between a probe and a target substance in a case when a medium containing a probe and a sample containing a target substance that is to be observed are brought into contact under a condition for performing an imaging step. […] Measurement procedures for the half-life are as below. […] Ndissociation is a cumulative relative frequency of a probe that dissociated. A cumulative relative frequency is a ratio of the speckles that disappeared within a given period of time to the total number of measured speckles (i.e. probes) (i.e. probes that dissociated within a given period of time), and represents the total number as 1. Then, by fitting the above complementary cumulative relative frequency function with an exponent function, that half-life is calculated.
The measurement of binding half-life, whose result is shown in table 1, was performed in the following procedures. Speckle images of 10000 frames picked up in the localization test were used in order to measure a period of time between the appearance of a probe that has bound to a target in a speckle image and disappearance through dissociation in a semi-manual mode by using Speckle TrackerJ, an ImageJ plug-in. In case of for example picking up of images with an exposure time of 50 ms and at a frame rate of 20 Hz, it is assumed that a period of time between the appearance and disappearance of a speckle that is observed in only one of consecutive frames is 50 ms and a period of time between the appearance and disappearance of a speckle observed in only two consecutive frames is 100 ms. […] Ndissociation is a cumulative relative frequency of probes that dissociated. Then, by fitting the complementary cumulative relative frequency function with an exponent function, the half-life was calculated. However, the binding half-life with respect to an actin filament of Atto488-Lifeact was measured by using a method that is described in detail in the section for FIG. 9 in the Brief Description of the Drawings.
For the molecule B1, the HALF-LIFE was found to be 0.103 s.
B2 gave an HALF-LIFE of 0.457 s.
In the case of B3, the HALF-LIFE was found to be 7.7 s.
Consider B4, for which the HALF-LIFE turned out to be 0.052 s.
Take B5: the HALF-LIFE came out at 0.059 s.

The next assay concerns intermediate filament. Briefly: IRIS image test (reconstruction image). The format is cell-based, Xenopus laevis. Details: key: “IRIS image” is positive (P) when above criterion (3) is met. To be noted: reconstruction from 10000 frames with DAOSTORM
The procedure: […] It is possible to reconstruct an image of a target substance by integrating the central positions of the respective speckles. The IRIS image test of the above (3) whose result is described in table 1 was performed in the following procedures. By using all the speckle images of 10000 frames picked up in the localization test, the central point of a probe that has bound to a target in each frame of the speckle images was determined with nanometer accuracy by using DAOSTORM. By adding a large number of pieces of central point information in the fluorescence images of 10000 frames, a reconstruction image (observation image) was generated. Whether or not a distribution of a target molecule was able to be observed in that reconstruction image was determined, and when a distribution of a target molecule was observed, the result was treated as P (positive).
On to B1, for which the “IRIS IMAGE” value is on record as “P”.
On to B2, for which the “IRIS IMAGE” value is listed as “P”.
For B4, the “IRIS IMAGE” value is given as “P”.
With B5, the “IRIS IMAGE” value was “P”.

Another assay has as its system intermediate filament. Kind of assay: Washability test of probe candidates. On the set-up: key: “washability” is positive (P) when above criterion (2) is met. Format: cell-based, Xenopus laevis. To be noted: speckles equal to or less than about 10% after switching imaging solution 10 to 20 times. The procedure: (2) It is possible to wash and remove a probe after SiMS imaging (imaging step);
The […] of the above (2), whose result is shown in table 1, was performed in the following procedures. […] This switching of imaging solution was conducted slowly so that the observation position would not shift. Next, an imaging solution not containing a probe and not containing the active oxygen-scavenging mix was switched 10 to 20 times. After the switching, for confirmation, for an XCT cell sample in the observation chamber, speckle images of 10 frames were picked up under a similar condition to that of the localization test described in the previous paragraph, and when the number of speckles confirmed in the speckle images (i.e., the number of probes that had bound) became sufficiently smaller (equal to or less than about 10%) than the number of the speckles in the speckle images before the washing operation, washing was determined to be possible and the result was treated as P (positive).
In the case of B1, the WASHABILITY entry is “P”.
Consider B2, for which the WASHABILITY entry is on record as “P”.
Take B3: the WASHABILITY result is “P”.
For B4, the WASHABILITY result is on record as “P”.
As for B5, the WASHABILITY entry is given as “P”.
